The values below come from publication PMC4701059 (Molecular microbiology, 2015).

Positions count from the first letter of the chain named.

The target in data set [1] is ComP(CD) (his6-ComP(CD)) (Bacillus subtilis, UniProt Q99027). Kind of data set: autophosphorylation with γ-32P-ATP, SDS-PAGE, phosphorimaging. It is filed as biochemical. The settings on record: 0.5 mM ATP; 20 mM MgCl2, pH 8-8.5, 24°C; labelled compound.
In data set [2] the target is T1, ComA (Bacillus subtilis (genomic DNA; strain …, UniProt P14204 2-214).
T1 sequence: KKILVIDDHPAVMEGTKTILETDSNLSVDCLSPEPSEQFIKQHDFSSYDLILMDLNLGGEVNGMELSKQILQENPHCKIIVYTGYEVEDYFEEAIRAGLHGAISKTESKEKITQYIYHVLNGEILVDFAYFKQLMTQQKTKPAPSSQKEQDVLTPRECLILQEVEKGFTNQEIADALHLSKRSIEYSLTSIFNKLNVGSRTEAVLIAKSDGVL
Kind of data set: EMSA. On the technique in general: A gel shift assay detects complexes by their altered migration in electrophoresis.

Data set [3] addresses T2, ComA;Rap60 (Bacillus subtilis (genomic DNA; strain …, UniProt P14204;Q45456 2-214;2-375, |).
T2 sequence 1: T1 sequence
T2 sequence 2: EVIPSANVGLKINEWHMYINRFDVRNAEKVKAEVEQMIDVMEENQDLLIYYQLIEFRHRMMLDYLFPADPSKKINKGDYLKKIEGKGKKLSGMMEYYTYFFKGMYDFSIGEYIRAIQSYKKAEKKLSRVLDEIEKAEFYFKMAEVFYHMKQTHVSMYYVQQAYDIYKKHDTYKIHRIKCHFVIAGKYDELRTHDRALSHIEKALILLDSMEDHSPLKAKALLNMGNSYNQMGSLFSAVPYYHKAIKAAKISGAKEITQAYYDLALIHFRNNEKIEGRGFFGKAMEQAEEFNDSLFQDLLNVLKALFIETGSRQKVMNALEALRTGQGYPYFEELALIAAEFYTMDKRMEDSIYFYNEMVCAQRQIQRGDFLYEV
The data set can be described thus: EMSA.

Data set [4] has as its target T3, ComA;Rap60(N27A) (Bacillus subtilis (genomic DNA; strain …, UniProt P14204;Q45456 2-214;2-375, |N27A).
T3 sequence 1: T1 sequence
T3 sequence 2: T2 sequence 2 with N26A
Kind of data set: EMSA.

The target of data set [5] is T4, Rap60 (Bacillus subtilis plasmid pTA1060, UniProt Q45456 2-375).
T4 sequence: T2 sequence 2
The data set can be described thus: EMSA.

The target of data set [6] is T5, ComA;Rap60(R26A) (Bacillus subtilis (genomic DNA; strain …, UniProt P14204;Q45456 2-214;2-375, |R26A).
T5 sequence 1: T1 sequence
T5 sequence 2: T2 sequence 2 with R25A
Kind of data set: EMSA.

The target in data set [7] is T6, ComA;Rap60(R26P) (Bacillus subtilis (genomic DNA; strain …, UniProt P14204;Q45456 2-214;2-375, |R26P).
T6 sequence 1: T1 sequence
T6 sequence 2: T2 sequence 2 with R25P
The data set can be described thus: EMSA.

Sequence of ComP(CD) (his6-ComP(CD)) (Q99027 384-769): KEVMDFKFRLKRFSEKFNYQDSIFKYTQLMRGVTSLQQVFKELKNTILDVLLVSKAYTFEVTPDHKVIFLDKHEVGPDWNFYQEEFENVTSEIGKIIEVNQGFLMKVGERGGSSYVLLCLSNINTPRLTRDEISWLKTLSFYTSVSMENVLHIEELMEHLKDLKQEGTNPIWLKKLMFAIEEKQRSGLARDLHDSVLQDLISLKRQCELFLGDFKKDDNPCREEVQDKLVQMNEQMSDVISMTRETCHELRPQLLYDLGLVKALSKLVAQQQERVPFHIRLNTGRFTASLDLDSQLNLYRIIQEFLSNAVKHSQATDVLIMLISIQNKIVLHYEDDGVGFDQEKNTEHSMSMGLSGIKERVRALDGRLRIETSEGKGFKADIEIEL

With `Nc1ncnc2c1ncn2[C@@H]1O[C@H](COP(=O)(O)OP(=O)(O)OP(=O)(O)O)[C@@H](O)[C@H]1O` [ATP], the “autophosphorylation with γ-32P-ATP, SDS-PAGE, phosphorimaging” value in data set [1] is “ComP autophosphorylation, ComP~P dephosphorylation, phosphotransfer from ComP to ComA”.

B1: minimal consensus ComA binding site (dsDNA)
DNA 1: TCATTGCGGCATCCCGCAAGAAACTTTGCGGTC
DNA 2: GACCGCAAAGTTTCTTGCGGGATGCCGCAATGA
Consider B1, for which the binding result is given as “binds” in data set [2]; “binds” in data set [3]; “binds” in data set [4]; “no binding” in data set [5]; “binds” in data set [6]; “binds” in data set [7].
